Results published in a protein production outcome set (Wang et al. 2014).

Test: label from the status in PepcDB records

Sequence | protein production
MNIMRTAMLLAFMTALFMGVGYLVGGSNGMVIALLMAGGLNFFSYWNSDKIVLRMYGAREVDQHSSPVYYKIVSDLARRASLPQPKVYIIDNAQPNAFATGRNPQNAAVAASTGLLNQLSAEEVAGVMAHELAHIEHRDTLTMTLTATIAGAISMLGNFAFFMGGQRHSSENSHSTGAIGGLLALFVAPFAAMLVQMAISRTREYAADRRGAEICGNPLWLASALSKIAGGGHTVYNEEAEHNPATAHMFIINPLRGEGADSLFSTHPATANRIAALRRQAEEMKGARVENMGWNEKIGLHKKSSDFRDLNSGAQTSVFNEESTVQRIKKRPSWLRYGDSKRPRS | failed
MRKNEYVNLPVICLVGPTASGKSGLAVRVCRRLYVDEHPAEIINTDSMVVYRGMDIGTATPTLREQRTVVHHLVSILDVTVPSSLVLMQTLARDAVEDCLSRGVIPVLVGGSALYTKAIIDEMSIPPTDPEVRARWQEKLDAEGPRVLHDELARRDPKAAESILPGNGRRIVRALEVIDLTGSFTATIPDGTLHWPKTVQMGLELSRKDIDQRIADRVDQMWAYGFVDEVRSLANVGLREGLTASRALGYRQVLEYLNGDYDEDEARRRTIIGTRRFARKQLMWYRRDDRIEWFNALAPDLDDRVVARVLTALTTDEED | failed
MTDFQKQFFARLNIEEKQKVSFEDLSNIMYAMAQTVPFENLNVLEKNFKEISQENLKEKILVNNRGGLCYELNPTMYYFLKDAGFDVYLVSGTVYNAANSIWAVDSGHIATILKHHNELYLIEVGFGSYLPLAPVPFSGEVVQSVTGDYRIRKEMTEKGNYMLEMRKNDEFLDQSSTDDWTLGYAFYIEEVDEKKQMQHKKLLLNTMAHHLTKYLLL | failed
MIAGFDAKLVASADTPLTIGNVPSGMEALLLADMARAGTSVAYVMSDGQRVADLEQILGFVAPDIPVLTLPAWDCLPYDRVSPSADTSARRLAALAGLINHAKKPHPAVVLVTVNAMLQKMAPRDVIESLGFSARPGNQIRMEDIAARLERNGFDRVATVREVGEFAVRGGILDVFVPGTEEPVRLDFFGDTLESIRTFDPASQRTIAQARSLDLNPMSEVTLTPDTIGRFRKNYLSLFGAATRDDALYQAVSEGRRYAGMEHWLPLFYEQLETAFDYLKGFRIVTDHTAKEAAKERSKLVLDYYEARRASGETKGSTQGAPYKPVSPGQIYLDGKSFEAALASVNAVRLTPFNEHDSEGRPVATLDAHVGPRWARPPTEGDSEERVNVFDLAVKHIAERRAKGWKVLITGWSEGSLDRLLQVLNEHGLEKIKPVTSLKEVKKLGKGEAACAVLSLEAGFETGTLAVIGEQDILGDRMVRRSKRRKRGADFIAEVAGLDEGSLVVHAEHGIGRFVGLQTIEAAGAPRACLELHYADDAKLFLPVENIDLLSRYGSDAAEATLDKLGGGAWQMRKAKLKKRLLDMADELIRIAAARLVRHAPALIAPDGLYDEFAARFPYDETEDQLNAIEAVRDDLGAGRPMDRLICGDVGFGKTEVALRAAFLAAMNGVQVAVVVPTTLLARQHFRTFSERFRGLPIRVQQASRLVGSKELALTKKEVAEGKTDIVVGTHALLGAGISFANLGLLIIDEEQHFGVKHKERLKELKSDVHVLTLSATPIPRTLQLAMTGVRELSLITTPPVDRMAVRTFISPFDPLVIRETLMREHYRGGQSFYVCPRLADLADIHAFLQSDVPELKVAVAHGQMAAGELEDIMNAFYDGKYDVLLSTTIVESGLDVPTANTLIVHRADMFGLAQLYQLRGRVGRSKVRAFALFTLPVNKVLTTMAERRLKVLQSLDTLGAGFQLASHDLDIRGAGNLLGEEQSGHIKEVGFELYQQMLEEAVAEVKGDEEVRDSGWSPQISVGTSVMIPEDYVPDLHLRMGLYRRLGELADISEIDGFGAEMIDRFGPLPKEVQHLLKIVYIKSLCRTANVEKVDAGPKGVVVQFRNKEFPNPAALVGYIGKQGSMAKIRPDHSLFLNRDLPTPEKRLTGAAMVMTQLAELARS | failed
MHPDTTLILIAAASIVLLVLLVTRLKLHPFLALMVAAAFLGLASGLAPTDAVKTFQKGFGNILGSVGLVVGLGSMLGGLLLNTGGADRIANAFVGRGSTVWLPTSICAAALLIGMPHLFDVSFVMLVPLVFAIAKRTGSHLMRVGLPMAAGLYVSHGFLLPHPSPTLALAIYHGDAGRAILFGFLLAIPTAILSGPLLTSFAMRWFKDPIDITHSPIMTAAGRSDVTTLDNAPRLPVVLLTVLLPPGLMLLRTLLADHVPEGAARAFLDGIGNPIVSLAIAVLFAIWALGVRSGRSLGEIQKLLGKSLAPAAGVILIVGAGGGLKEMLLGTHIGDMIASGAAQWAISPLVLAWVIAALMRIAVGSATVATVTAAGLMAPVQALHPEISPELMTISVATGGLMLSHLNDSGFWLFKEYFQLTVAQTLKSWTLMVSVQSALGLAGVLLIDAVIR | failed
EDYEKVPLPNSVFVNTTESCEVERLFKATSPRGEPQDGLYCIRNSSTKSGKVLVVWDETSNKVRNYRIFEKDSKFYLEGEVLFVSVGSMVEHYHTHVLPSHQSLLLRHPYGYT | not failed
MRSGKIASEEYKDNPLTSCGTVRYWAAAKAAAGRHEETFTASTLSDLLEQVRQKYEGNAAMLAVLARSSFLVNATPVGVRPHHEVVLEPGWIVEVLPPFAGG | failed
PLKEQKVINTANIKTNSKLDLAEYENGLINIATQQFDTESHVLQLNQYIPEKLIDELVAKVEAPVLTNIIEQDYFGKQNSNELSLSGVMIGLAMSSSVSNEEAMSKGTEVAKQLIEAINKNDKYNKSPITFAIFKQESTSSLKNGTYIASATVQKNDTNLGNWSTIDEKSYSYPSDEFTQAHGEDNTKINNFAKEIKGFSNGDFIPVNAKVSYKKDQMDTLNMNIVIKYNGKTELMALTQLAAQGMLDKLPKDAKVQLQIKSESKIEAVIIKEKNSDKPFV | failed
MVSSVLEVSHVFCCPNRVRGALSWNTGPGGLLAFGTSCSVVLYDPQKKVVITNLNGHTARVNCLQWIRTEDGSPSNELVSGGSENRVIHWELENNQVLKSVRLQGHEGPVCAVHAIYQSGPSEGEQHALIASAASDSTVRIWSKKGSEVKYLQTLSFRDGFVLSVCLAILPGTNVPVLACGDDDCRIHLYIQQDDQFQKALSLCGHEDWIRGVEWATFGRDLFLASCSQDCLIRIWRLYMKPASFETKDGSLRLKENTFTIKDGGVRTTVAVTLETVLAGHENWVNAVHWQPSFYKDGVLQQPVRLLSASMDKTMILWAPDEESGVWLEQVRVGEVGGNTLGFYDCQFGENGTMIIAHAFHGALHLWKQSTVNPRQWAPEIVISGHFDGVQDLMWDPEGEFIITTSTDQTTRLFAPWKKKDQKDRSQVTWHEIARPQIHGYNIKCLAMIDRFQFVSGADEKVLRVFSAPRNFVENFSVISRQSLSHMLCDDQDLPEGATVPALGLSNKALFQGDIASQPFEEDELISPAFGSPQVTFQPAVLNEPPTEDHLLQNTLWPEIQKLYGHGYEIVCVACNNSKTLLASACKASQKEHAAIILWSTASWKQVQSLAFHTLTVTQMTFSPDDKFLLAVSRDRTWSLWKRQDATSSEFDPFFSLFAFTNKITSVHSRIIWSCDWSPDNKYFFTGSRDKKVVVWGECKSSHNPMEHPIRPCSSILDVGSSVTAVSVCPVLNPAQRYIVAIGLESGKICIYSWNKTNQEINDWTSCVETNPSQSHSLGIRRLCWKSCSDDDDDDDDDDTEQSEEGPEWLHFASCGEDHTVKIYRVNRRAL | failed
MEQSLGSKQNLGSKQNQITKPHKLVLDNRKRTNLTGIEDVVEFDTTQIVLESSMGMLVIKGADLKITRLSIEKGEADIDGSVNSVIYSQIKNYGEKGKSVLKRMFS | failed
MSTDTCIKRPTRSELVDRFQKKIRAGEPIIGGGAGTGLSAKSEEAGDIDLIVIYNSGRYRMAGRGSLAGLLAYGNANQIVVDMAREVLPVVRHTPVLAGVNGTDPFMVMSTFLRELKEIGFAGVQNFPTVGLIDGLFRQNLEETGMSYAQEVEMIAEAHKLDLLTTPYVFSPEDAVAMAKAGADILVCHMGLTTGGAIGARSGKSMDDCVSLINECIEAARTIRDDIIILSHGGPIANPEDARFILDSCQGCHGFYGASSMERLPAEEAIRSQTLAFKAIRRQPA | not failed
MKYIVAVNASPRSGWNTSQLVEAAAKGAKEAGATVDIIDLYKLEPFQGCISCFGCKLPRTFGRCVSKDGLSEVLDKIRKADGLILGSPNYLGNLTAGFRALYERLIFQSLTYNKERPNCNEHMIPVLLITTSNCDESIYDKIGYTSMLEGYKQMLERFVGPLEHHHHHH | failed
MMKVLLLEDVKNLGKAGEVCEVKDGYGNNFLIANQKAKLATNEVINKYKAEVKKKAEKEALEKAQKLQMVETLQTITLTIHKKVGANGSLFGAITKEEITERLKEQHASLNLDKKDIELKHPIKSTGIYEIEVKLGSGVVGVFKIDVVAE | failed
MQASENSHDDFLFIDDSDEDEILAFGSNETWQVLIVDDDPEIHSVTQLALSDLVVLGRRLEYLHAYSGKDACQLIENNDDIVLVLLDVVMETDDAGLNVVKYIRETLQRKDIRIVLRTGQPGYAPEESVIKEYDINDYKTKTELTRRKLVTTVFAAIRSFQQIATVNENRQGLEKIVSGATELSSQHSLPTFSQSVLSQLRTLISDDISAVFCARGQGIIDNIDDLSFYVLAQIGFDDSLLNQKIDTLQDNQANKQVKACFLQQKHQYLDDSLDLYVAKGDYRAVIHVRLSSPLTEIQTQLLNVFLTGVAVGYENVHLFQKLTNAAYRDWLTNLPNRLEFVRLLDSFAQNDCKNTVAALIDINHFSDINDALGQDIGNKLLSAVGQRIQSIGSDCQLARVGADVFGIIGPADCLTPESLIALFHQPFAAGEQHLPINACFGLCTKEHAQSSGVQVLNQINIALNIAKKNRLEHFAYYHSDIEDQMQWRLNMIRQLRNDFGNNCLELWYQPQLSLTTGKVIGAEALLRWRTADGKFVSPAVFIPLAEYSGLIIEIGDWVISQACKQLKVLEENFSDLSISVNVSIPQFRQDNFVDNIINTMTQYGIKPNKLELEITENILMDEPQIIIDALTKLKAQGISIALDDFGTGFSSLSYLQKLPLNRLKVDRAFVTDINKEGQSVIAETIINLGKKMQLKVIAEGIEEIEQQERLIELGCDEVQGFYYAKPMPADEFINFLHQQS | failed
RVKESITRTSRAPSVATVGSICDLNLKIPEINSSDMSAHVTSPSGRVTEAEIVPMGKNSHCVRFVPQEMGVHTVSVKYRGQHVTGSPFQFTVGPLGEGG | not failed
MSLEKQIESYYQEIAQLIIDMIPEEWAEVRFYAQEDHDGWKIFFFHYLSASSDEWTKDIDIRDVIKVPQDEFMEKYNELSFCISDFRKDYAEAFGEPWMSFQMTFYASGKFNIDFYYDKNPFDTFLTRLAWQYEHFGTIPEDSFYKETLNEYLEEKAQGKRYPFLEPLKEEEGHHHHHH | not failed
MTGFASLPVEFLITVFAMSFSIGFVAIIAGTGGGVLFTSCLWDLHQYIRTNKSNRTSFGDCWAIGPTINLIMLAPLKIATTTSAVVISIGDTAAIFPYFMSGSLLPIFAVPAVAGLMTGARFGSAVAVRVKAKYIRYTLTTILLFAGIKLIWVGLWMLEG | failed
MTTNIAANSGGIVFHFLGTGGAQQVPAFGCECEVCQQAQRNESKRRRACCAAITTKDRIILIDAGLPELSPYLLPYPQRHILLTHYHMDHVQGLFPLRWGYGEPIPVFGPPDEAGCDDLFKHPGILHFQKPLMAFQPFELDGIRITPVPLIHSKLTYGYLIQTPTHTLAYLTDTIGLPPETTQFLASHTLDYAIVDCSHPPQTMLPRNHNDITRALEIFTQLNPKQLYLTHISHELDRWLQTQTLLPENVHAAYDGLVLGLLEHHHHHH | failed
KAFLEDMKKYAETFLEPWFKAPNKGTFQIVYKSRNNSHVNREEVIRELAGIVCTLNSENKVDLTNPQYTVVVEIIKAVCCLSVVK | not failed
YLGPQGTFTHQAAVNAAQELARFEPQGFDLMPMDDVPQILDAAQHGDGWGIVAWENNVEGYVVPNLDALIDAKDLVGFARVGVNVEFDAYVAQGADPAEARIATAHPHGLAQCKRFIAEHRLSTQPATSNAAACRDLIPGEIAFGPAICGELYDITRIGTAIQDYQGAATDFLVLSPRAE | failed
